From the FLAb antibody collection (doi:10.1101/2023.12.08.570889)
Numbering of substitutions follows the chain as printed.

B1: unnamed (protein)
chain 1: QMQLVESGGGVVQPGRSLRLSCAASGFTFRTYGMHWVRQAPGKGLEWVAVIWYDGSNKHYADSVKGRFTITRDNSKNTLNLQMNSLRAEDTAVYYCARSPRYDWYLEAFDVWGQGTMVTVSS
chain 2: SYVLTQPPSVSVAPGQTARITCGGNNLGSKSVHWYQQKPGQAPVLVVYDDSDRPSWIPERFSGSNSGNTATLTISRGEAGDEADYYCQVWDSSSDHVVFGGGTKLTVL
B2: unnamed (protein)
chain 1: B1 chain 1 with W104E, L106Y
chain 2: B1 chain 2
B3: unnamed (protein)
chain 1: B1 chain 1 with W104Y, L106Y
chain 2: B1 chain 2
B4: unnamed (protein)
chain 1: B1 chain 1 with S99A, W104E, L106Y, E107D
chain 2: B1 chain 2
B5: unnamed (protein)
chain 1: B1 chain 1 with S99A, W104Y, Y105E, L106Y
chain 2: B1 chain 2
B6: unnamed (protein)
chain 1: B1 chain 1 with W104E, L106W
chain 2: B1 chain 2
B7: unnamed (protein)
chain 1: B1 chain 1 with S99A, W104D
chain 2: B1 chain 2
B8: unnamed (protein)
chain 1: B1 chain 1 with S99A, W104F, L106Y
chain 2: B1 chain 2
B9: unnamed (protein)
chain 1: B1 chain 1 with S99A, Y105A, L106Y
chain 2: B1 chain 2
B10: unnamed (protein)
chain 1: B1 chain 1 with S99A, W104D, Y105A, L106Y
chain 2: B1 chain 2
B11: unnamed (protein)
chain 1: B1 chain 1 with S99A, W104E, Y105R, L106W
chain 2: B1 chain 2
B12: unnamed (protein)
chain 1: B1 chain 1 with S99A, W104D, Y105D, L106W
chain 2: B1 chain 2
B13: unnamed (protein)
chain 1: B1 chain 1 with S99A, W104E, L106W
chain 2: B1 chain 2
B14: unnamed (protein)
chain 1: B1 chain 1 with S99A, W104E, Y105H, L106Y
chain 2: B1 chain 2
B15: unnamed (protein)
chain 1: B1 chain 1 with S99A, D103Y, L106W
chain 2: B1 chain 2
B16: unnamed (protein)
chain 1: B1 chain 1 with S99A, Y105T, L106Y
chain 2: B1 chain 2
B17: unnamed (protein)
chain 1: B1 chain 1 with S99A, D103Y, W104E, L106W
chain 2: B1 chain 2
B18: unnamed (protein)
chain 1: B1 chain 1 with S99A, W104Y, L106Y
chain 2: B1 chain 2
B19: unnamed (protein)
chain 1: B1 chain 1 with L106Y
chain 2: B1 chain 2

Target: TSLP, Q969D9
Assay: Kd (SPR)

B1 was tested. Which Kd did it give?
The Kd was 335 nM.

With B2 as the binder, how does the Kd read?
The Kd was 242 nM.

B3 was tested. Which Kd did it give?
Its Kd is 337 nM.

B4 was tested. Which Kd did it give?
Its Kd is 293 nM.

For B5, which Kd is on record?
Its Kd is 104 nM.

B6 was tested. Which Kd did it give?
Its Kd is 369 nM.

How did the Kd turn out when B7 was run?
Its Kd is 99.9 nM.

For B8, which Kd is on record?
Its Kd is 116 nM.

For B9, which Kd is on record?
The Kd was 404 nM.

How did the Kd turn out when B10 was run?
The Kd was 99.6 nM.

How did the Kd turn out when B11 was run?
Its Kd is 494 nM.

B12 was tested. Which Kd did it give?
Its Kd is 82.7 nM.

With B13 as the binder, how does the Kd read?
Its Kd is 84.9 nM.

B14 was tested. Which Kd did it give?
The Kd was 168 nM.

For B15, which Kd is on record?
Its Kd is 23.6 nM.

With B16 as the binder, how does the Kd read?
The Kd was 128 nM.

With B17 as the binder, how does the Kd read?
Its Kd is 29.2 nM.

B18 was tested. Which Kd did it give?
Its Kd is 138 nM.

B19 was tested. Which Kd did it give?
Its Kd is 122 nM.
